This experiment addresses Glucagon-like peptide-1 receptor (GLP1R). Description: cell-based or functional assay.

Non-standard residues stand in square brackets, D forms with d. No end group written: not given here.

B1: HS-20003 (peptide)
peptide: H[dA]EGTFTSDVSSYLEEEAAKEFIAWLVRGGPSSGAPPPSK
modifications: not fully specified (residue 40); also: palmitoyl on alpha-amino of C-terminal Lys, chain built on its epsilon amino
Take B1: the EC50 (nM), cAMP-response-element luciferase reporter in HEK293 cells with GLP1R was found to be 0.000719 nM and the Maximum reaction rate (%) is 87.9%.

The values above are taken from US20120129768A1.
